Results taken from patent US10941182 (Amgen, dated 2021).
Starred links: 1 amine or outer side, 2 acyl side, 3 side chain; linkers in the order of their positions; H or OH if unused. Non-standard residues stand in square brackets, D forms with d. Primed or numbered codes have the meaning given here. *: point of attachment. dBip = N[C@H](Cc1ccc(-c2ccccc2)cc1)C(=O)O; Oic = O=C(O)[C@@H]1C[C@@H]2CCCC[C@@H]2N1; Phe(4-Cl) = N[C@@H](Cc1ccc(Cl)cc1)C(=O)O; Phe(4-I) = N[C@@H](Cc1ccc(I)cc1)C(=O)O; γGlu = O=C(O)[C@H](CCC(=O)[*:2])N[*:1]; NMehArg = CN[C@@H](CCCCNC(=N)N)C(=O)O; HOOC(CH2)8CO = O=C(O)CCCCCCCCC(=O)*; NMeR = CN[C@@H](CCCNC(=N)N)C(=O)O; Palmitoyl = CCCCCCCCCCCCCCCC(=O)*; Tridecanoyl = CCCCCCCCCCCCC(=O)*; hArg = N=C(N)NCCCC[C@H](N)C(=O)O; NMeL = CN[C@@H](CC(C)C)C(=O)O; αMeL = CC(C)C[C@](C)(N)C(=O)O; αMeP = C[C@@]1(C(=O)O)CCCN1; AC4Abu″ = not defined here; β3hP = O=C(O)C[C@@H]1CCCN1; Nle = CCCC[C@H](N)C(=O)O; Dap = NC[C@H](N)C(=O)O; AEEA = NCCOCCOCC(=O)O

T1: rat APJ receptor (rat, UniProt Q9JHG3 1-377)
T1 sequence (looked up): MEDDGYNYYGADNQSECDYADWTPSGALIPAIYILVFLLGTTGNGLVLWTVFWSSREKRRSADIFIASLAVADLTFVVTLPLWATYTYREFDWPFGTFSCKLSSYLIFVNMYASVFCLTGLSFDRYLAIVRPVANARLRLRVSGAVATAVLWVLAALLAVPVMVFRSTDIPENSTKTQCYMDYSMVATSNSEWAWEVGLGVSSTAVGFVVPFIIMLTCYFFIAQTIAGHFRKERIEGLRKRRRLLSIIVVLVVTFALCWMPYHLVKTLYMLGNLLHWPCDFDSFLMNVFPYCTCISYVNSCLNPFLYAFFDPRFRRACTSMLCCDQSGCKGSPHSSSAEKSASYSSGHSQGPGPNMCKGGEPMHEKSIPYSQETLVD

T2: rat APJ receptor (rat, UniProt Q9JHG3 1-377)
T2 sequence (looked up): T1 sequence (looked up)

B1: SEQ ID NO: 73 (peptide)
peptide: Ac-QR[NMehArg]LSHKGP[Nle]P[Phe(4-Cl)]-OH
SMILES: CCCC[C@H](NC(=O)[C@@H]1CCCN1C(=O)CNC(=O)[C@H](CCCCN)NC(=O)[C@H](Cc1c[nH]cn1)NC(=O)[C@H](CO)NC(=O)[C@H](CC(C)C)NC(=O)[C@H](CCCCNC(=N)N)N(C)C(=O)[C@H](CCCNC(=N)N)NC(=O)[C@H](CCC(N)=O)NC(C)=O)C(=O)N1CCC[C@H]1C(=O)N[C@@H](Cc1ccc(Cl)cc1)C(=O)O
B2: SEQ ID NO: 291 (peptide)
peptide: {HOOC(CH2)8CO}-[γGlu][AEEA][AEEA][hArg][dR]Q[hArg]P[dR][NMeL]SHKG[Oic][Phe(4-I)]P[dBip]-OH
SMILES: CC(C)C[C@@H](C(=O)N[C@@H](CO)C(=O)N[C@@H](Cc1c[nH]cn1)C(=O)N[C@@H](CCCCN)C(=O)NCC(=O)N1[C@H](C(=O)N[C@@H](Cc2ccc(I)cc2)C(=O)N2CCC[C@H]2C(=O)N[C@H](Cc2ccc(-c3ccccc3)cc2)C(=O)O)C[C@@H]2CCCC[C@@H]21)N(C)C(=O)[C@@H](CCCNC(=N)N)NC(=O)[C@@H]1CCCN1C(=O)[C@H](CCCCNC(=N)N)NC(=O)[C@H](CCC(N)=O)NC(=O)[C@@H](CCCNC(=N)N)NC(=O)[C@H](CCCCNC(=N)N)NC(=O)COCCOCCNC(=O)COCCOCCNC(=O)CC[C@H](NC(=O)CCCCCCCCC(=O)O)C(=O)O

target: T1, rat APJ receptor; assay: cell-based or functional assay

Going from XXXQRPRLSHKGPXPF ({TDA}[AC4Abu][Aeea][Aeea]QRP[hArg]LSHKGP[Nle]P[4-Cl-F]{COOH}) [Apelin polypeptide SEQ ID NO: 355] to XXXQRPRLSHKGPXPF ({TDA}[AC4Abu][Aeea][Aeea]Q[hArg]P[hArg]LSHKGP[Nle]P[4-Cl-F]{COOH}) [Apelin polypeptide SEQ ID NO: 357], the “EC50 Rat APJ Receptor (GTPγS assay)” value rises from 0.06 nM to 0.24 nM (4-fold).

Tridecanoyl-[AC4Abu″][AEEA][AEEA][dQ]RP[NMeR][αMeL][BhSer]HKG[Oic][Nle][αMeP][Phe(4-Cl)]-OH (reading uncertain) [Apelin polypeptide SEQ ID NO: 518] was tested, and the “EC50 Rat APJ Receptor (GTPγS assay)” value was 0.444 nM.

target: T2, rat APJ receptor; assay: cell-based or functional assay

First: XXXQRPRLSHKGPXPF ({hexanoyl}[AC4Abu][Aeea][Aeea]QRP[hArg][aMeLeu]SHKGP[Nle]P[4-Cl-F]{COOH}) [SEQ ID NO: 559]
Second: B1
The “EC50 Rat APJ Receptor” value of the first is 5.2-fold lower: 9.15 nM for the first, 47.2 nM for the second.

XXXQRPRLSHKGPXPF ({DDDA}[AC4Abu][Aeea][Aeea]QRP[NMeArg]LSHKGP[Nle]P[4-Cl-F]{COOH}) [SEQ ID NO: 510] and XXXQRPRLSHKGPXPF ({AdpA}[AC4Abu][Aeea][Aeea]QRP[NMeArg]LSHKGP[Nle]P[4-Cl-F]{COOH}) [SEQ ID NO: 461] are within 1.5-fold of each other in “EC50 Rat APJ Receptor” value: 0.903 nM for the first, 1 nM for the second.

First: QRPRLSHKGPXPF ({Acetyl-NH}Q[hArg]P[NMeArg][aMeLeu]SHKGP[Nle]P[4-Cl-F]{COOH}) [SEQ ID NO: 71]
Second: XXXQRPRLSHKGPXPF ({Butanoyl}[AC4Abu][Aeea][Aeea]QRP[NMeArg]LSHKGP[Nle]P[4-Cl-F]{COOH}) [SEQ ID NO: 491]
The “EC50 Rat APJ Receptor” value of the first is 6.1-fold higher: 2.75 nM for the first, 0.453 nM for the second.

Going from XXXQRPRLSHKGPXPF ({Myristyl-NH}[AC4Abu][Aeea][Aeea]QRP[NMeArg]LSHKGP[Nle]P[4-Cl-F]{COOH}) [SEQ ID NO: 592] to B2, the “EC50 Rat APJ Receptor” value rises from 0.598 nM to 2.47 nM (4.1-fold).

XXXQRPRLSHKGPXPF ({ODDA}[AC4Abu][Aeea][Aeea]QRP[NMeArg]LSHKGP[Nle]P[4-Cl-F]{COOH}) [SEQ ID NO: 513] and XXXQRPRLSHKGPXPF ({AdpA}[AC4Abu][Aeea][Aeea]QrP[hArg][aMeLeu]SHKGP[Nle]P[4-Cl-F]{COOH}) [SEQ ID NO: 515] are within 1.5-fold of each other in “EC50 Rat APJ Receptor” value: 6.12 nM for the first, 5.94 nM for the second.

First: KLRKHNCLQRRCMPLHSRVPFP [SEQ ID NO: 15]
Second: XXXQRPRLSHKGPXPF ({Palm}[AC4Abu][Aeea][Aeea]QRP[NMeArg]LSHKGP[Nle]P[4-Cl-F]{COOH}) [SEQ ID NO: 593]
The “EC50 Rat APJ Receptor” value of the first is 70-fold higher: 16.1 nM for the first, 0.231 nM for the second.

Going from Ac-[hArg][dR]Q[hArg]E[dR][NMeL]SHKG[Oic][Phe(4-I)]P[dBip]-OH [SEQ ID NO: 78] to Palmitoyl-[AC4Abu″][AEEA][AEEA][dQ]RP[NMeR][αMeL]S[Dap]KG[Oic][Nle][β3hP][Phe(4-Cl)]-OH (reading uncertain) [SEQ ID NO: 630], the “EC50 Rat APJ Receptor” value falls from 0.871 nM to 0.486 nM (1.8-fold).

QRPRLSHKGPXPF ({Acetyl-NH}QrP[hArg][aMeLeu]SHKGP[Nle]P[4-Cl-F]{COOH}) [SEQ ID NO: 70] and XXXQRPRLSHKGPXPF ({hexanoyl}[AC4Abu][Aeea][Aeea]QrP[hArg][aMeLeu]SHKGP[Nle]P[4-Cl-F]{COOH}) [SEQ ID NO: 514] are within 1.5-fold of each other in “EC50 Rat APJ Receptor” value: 9.74 nM for the first, 6.69 nM for the second.

QRPRLSHKGPXPF ({Acetyl-NH}QRP[NMeArg]LSHKGP[Nle]P[4-Cl-F]{COOH}) [SEQ ID NO: 68] was tested, and the “EC50 Rat APJ Receptor” value was 0.384 nM.
